Laboratory results taken from paper PMC7595626.

Biological target: His6-tagged Casp8p41 protein
Test: SPR; Casp8p41 immobilised on a CM5 chip (6000-7000 RU); BCL2 or phospho-S70-BCL2 flowed over; 25°C; 150 mM NaCl, 0.05 mM EDTA, 0.005% Polysorbate 20, 10 mM Hepes pH 7.4; steady state affinity fit, 1:1 model; Biacore T200

With phospho-S70-BCL2 (domain or fragment) as the substance, how does the Kd read?
Its Kd is 40 nM.

For BCL2ΔTM-His6 (domain or fragment), which Kd is on record?
The Kd was 260 nM.
